The values that follow come from PMC10668032, “Altered binding affinity of SIX1-Q177R correlates with enhanced WNT5A and WNT pathway effector expression in Wilms tumor”.

Data set [1] has as its target T1, SIX1 (human, UniProt Q15475 1-284).
T1 sequence: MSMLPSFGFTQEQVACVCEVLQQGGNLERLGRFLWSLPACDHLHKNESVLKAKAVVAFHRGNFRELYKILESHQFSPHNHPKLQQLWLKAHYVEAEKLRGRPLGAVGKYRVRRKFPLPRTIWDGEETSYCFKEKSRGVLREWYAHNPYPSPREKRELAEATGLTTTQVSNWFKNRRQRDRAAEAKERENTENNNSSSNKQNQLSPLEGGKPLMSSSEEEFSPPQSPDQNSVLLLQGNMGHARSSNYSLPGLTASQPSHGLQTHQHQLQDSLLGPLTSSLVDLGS
Nature of the data set: EMSA; EMSA: Active Motif Gelshift or Thermo LightShift chemiluminescent kit binding buffer, no glycerol, no poly d(I-C), RT 25 min; protein dilutions 1-300 nM; 6% gel in 0.5x TBE; pH and salt not given. As to conditions: protein: recombinant; tags: N-terminal HA from pGEX-6p1-N-HA (GST removed with PreScission); label: biotin 3' end (both strands, Pierce 3' end-labeling kit); blunt. A general note: A gel shift assay detects complexes by their altered migration in electrophoresis.

Data set [2] has as its target T1, SIX1. Nature of the data set: EMSA; modest increase in affinity vs N1; EMSA: Active Motif Gelshift or Thermo LightShift chemiluminescent kit binding buffer, no glycerol, no poly d(I-C), RT 25 min; protein dilutions 1-300 nM; 6% gel in 0.5x TBE; pH and salt not given. As to conditions: protein: recombinant; tags: N-terminal HA from pGEX-6p1-N-HA (GST removed with PreScission); label: biotin 3' end (both strands, Pierce 3' end-labeling kit); blunt.

B1: WNT5A_promoter_EMSA (dsDNA)
DNA 1: CCCGCCCTAAGTGTCAAATTTCCTCCAGGGGAG
DNA 2: CTCCCCTGGAGGAAATTTGACACTTAGGGCGGG
On to B1, for which the binding signal with SIX1 [1] was ~0.1 affinity relative to SIX1-Q177R on same probe.

B2: WNT5A_promoter_EMSAmut (dsDNA)
DNA 1: CCCGCCCTAAGTATCAAATTTCCTCCAGGGGAG
DNA 2: CTCCCCTGGAGGAAATTTGATACTTAGGGCGGG
For the molecule B2, the binding result with SIX1 [2] is recorded as “binds”.
